Results on 18 molecules are retold here after US20220010021A1 (Sanofi, published 2022).

Broadly, the EC50 is the concentration giving half of the maximal effect. One may read the Emax as the size of the effect at its maximum, as opposed to the concentration needed. As usually defined, the koff is the rate constant with which the complex falls apart.

The target of test [1] is human FGFR1c + KLB receptor complex on HEK293 iLite FGF21 reporter cells (human, UniProt P11362 22-822; Q86Z14 1-1044). As to the kind of experiment: cell-based or functional assay.
For a further test, the target named is T1, human beta-Klotho (KLB) (human, UniProt Q86Z14 53-997).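 Also: Anti-KLB antibodies captured on anti-human Fc CM5 chip, KLB injected as analyte, 180 s association and 1800 s dissociation, fitted to 1:1 binding model.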
T1 construct: bought protein; also called human KLB
T1 sequence (looked up): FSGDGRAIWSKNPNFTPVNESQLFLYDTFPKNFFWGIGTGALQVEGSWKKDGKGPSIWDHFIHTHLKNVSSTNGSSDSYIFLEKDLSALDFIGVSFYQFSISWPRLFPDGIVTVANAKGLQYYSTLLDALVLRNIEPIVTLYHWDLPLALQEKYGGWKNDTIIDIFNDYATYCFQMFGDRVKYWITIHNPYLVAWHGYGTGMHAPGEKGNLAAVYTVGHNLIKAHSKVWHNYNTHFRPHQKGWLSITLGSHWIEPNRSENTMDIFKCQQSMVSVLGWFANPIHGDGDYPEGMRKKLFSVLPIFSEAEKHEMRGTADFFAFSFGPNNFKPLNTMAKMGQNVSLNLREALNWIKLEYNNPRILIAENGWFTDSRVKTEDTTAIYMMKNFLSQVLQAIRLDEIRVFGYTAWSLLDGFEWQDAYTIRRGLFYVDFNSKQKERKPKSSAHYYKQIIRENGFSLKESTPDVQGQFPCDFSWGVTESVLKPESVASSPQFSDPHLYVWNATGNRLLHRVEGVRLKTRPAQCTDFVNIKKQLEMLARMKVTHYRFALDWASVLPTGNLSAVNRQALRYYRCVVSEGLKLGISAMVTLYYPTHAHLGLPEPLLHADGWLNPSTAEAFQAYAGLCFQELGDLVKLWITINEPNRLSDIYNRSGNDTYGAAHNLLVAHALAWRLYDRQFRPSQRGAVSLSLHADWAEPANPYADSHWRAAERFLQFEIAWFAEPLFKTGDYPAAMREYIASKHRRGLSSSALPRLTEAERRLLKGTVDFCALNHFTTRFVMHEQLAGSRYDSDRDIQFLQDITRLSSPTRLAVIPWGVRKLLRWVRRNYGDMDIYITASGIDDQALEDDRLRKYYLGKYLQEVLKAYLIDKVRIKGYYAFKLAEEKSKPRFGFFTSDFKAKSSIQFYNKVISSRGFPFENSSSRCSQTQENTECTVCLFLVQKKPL
The experiment in a line: SPR. Background: In SPR one partner is held on a chip, and binding of the other changes the refractive index at the surface.

Sequence of human FGFR1c + KLB receptor complex on HEK293 iLite FGF21 reporter cells (P11362 22-822, chain 1 of 2): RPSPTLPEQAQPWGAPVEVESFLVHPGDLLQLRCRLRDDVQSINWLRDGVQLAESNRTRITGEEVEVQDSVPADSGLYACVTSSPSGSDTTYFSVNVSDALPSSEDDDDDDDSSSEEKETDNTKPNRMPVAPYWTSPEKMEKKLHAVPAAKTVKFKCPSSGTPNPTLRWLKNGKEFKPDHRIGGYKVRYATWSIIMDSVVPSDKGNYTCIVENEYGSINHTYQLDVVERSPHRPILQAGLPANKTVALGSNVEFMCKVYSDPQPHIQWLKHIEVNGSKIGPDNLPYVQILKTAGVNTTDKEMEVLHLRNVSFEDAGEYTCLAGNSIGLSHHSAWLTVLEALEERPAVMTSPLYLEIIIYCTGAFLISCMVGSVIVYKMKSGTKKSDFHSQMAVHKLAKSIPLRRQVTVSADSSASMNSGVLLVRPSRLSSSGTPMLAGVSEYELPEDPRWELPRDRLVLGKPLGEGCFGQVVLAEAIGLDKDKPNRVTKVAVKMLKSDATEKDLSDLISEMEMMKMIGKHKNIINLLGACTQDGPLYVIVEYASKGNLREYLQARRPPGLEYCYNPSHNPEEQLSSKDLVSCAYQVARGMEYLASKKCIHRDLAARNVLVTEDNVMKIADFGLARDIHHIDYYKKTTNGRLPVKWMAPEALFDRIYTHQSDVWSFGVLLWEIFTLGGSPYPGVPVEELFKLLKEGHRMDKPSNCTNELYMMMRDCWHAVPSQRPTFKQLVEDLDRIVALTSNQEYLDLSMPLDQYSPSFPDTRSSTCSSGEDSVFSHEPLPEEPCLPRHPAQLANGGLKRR
Sequence of human FGFR1c + KLB receptor complex on HEK293 iLite FGF21 reporter cells (Q86Z14 whole entry, chain 2 of 2): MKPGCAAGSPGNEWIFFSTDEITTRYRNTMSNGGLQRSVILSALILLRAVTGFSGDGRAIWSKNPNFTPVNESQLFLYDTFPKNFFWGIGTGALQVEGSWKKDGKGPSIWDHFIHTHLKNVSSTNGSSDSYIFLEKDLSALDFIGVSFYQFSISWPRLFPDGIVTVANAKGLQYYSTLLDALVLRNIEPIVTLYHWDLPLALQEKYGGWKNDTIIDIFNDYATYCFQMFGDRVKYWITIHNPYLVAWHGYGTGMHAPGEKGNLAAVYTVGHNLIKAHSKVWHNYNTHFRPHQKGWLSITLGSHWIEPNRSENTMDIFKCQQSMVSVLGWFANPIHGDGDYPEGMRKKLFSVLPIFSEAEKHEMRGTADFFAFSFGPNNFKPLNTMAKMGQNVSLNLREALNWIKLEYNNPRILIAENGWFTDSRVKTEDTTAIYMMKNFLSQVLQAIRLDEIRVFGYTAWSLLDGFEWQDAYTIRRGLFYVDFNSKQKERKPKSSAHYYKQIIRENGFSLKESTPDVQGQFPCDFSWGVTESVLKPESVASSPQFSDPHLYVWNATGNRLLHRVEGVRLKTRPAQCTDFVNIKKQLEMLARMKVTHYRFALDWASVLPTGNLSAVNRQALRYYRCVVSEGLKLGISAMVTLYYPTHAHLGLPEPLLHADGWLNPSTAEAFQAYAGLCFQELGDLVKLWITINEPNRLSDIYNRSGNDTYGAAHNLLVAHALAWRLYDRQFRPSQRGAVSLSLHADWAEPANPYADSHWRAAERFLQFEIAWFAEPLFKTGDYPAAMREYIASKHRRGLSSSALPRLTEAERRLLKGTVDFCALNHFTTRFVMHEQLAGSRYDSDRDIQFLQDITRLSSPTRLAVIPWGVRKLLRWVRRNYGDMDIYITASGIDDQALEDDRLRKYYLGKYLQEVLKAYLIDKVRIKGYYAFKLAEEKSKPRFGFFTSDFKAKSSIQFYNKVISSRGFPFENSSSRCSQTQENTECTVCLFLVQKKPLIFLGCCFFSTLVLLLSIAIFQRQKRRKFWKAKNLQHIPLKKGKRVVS

B1: Ab0225 (antibody, IgG4, V domains shown)
VH: not shown
VL: SYVLTQPPSVSVAPGQTARITCGGNNIGSESVHWYQQKPGQAPVLVVYEDSDRPSGIPERFSGSNSGNTATLTISRVEAGDEADYYCQVWDGNSDHVVFGGGTKLTVLG
notes: IgG4 PE
In the case of B1, in test [1], the EC50 amounted to 0.09 nmol/L and the Emax was found to be 1790%. Further, the koff with human beta-Klotho (KLB) was determined as 0.00104 s⁻¹.

B2: Ab0236 (antibody, IgG4, V domains shown)
VH: not shown
VL: SYVLTQPPSVSVAPGQTARITCGGNNIGSESVHWYQQKPGQAPVLVVYDDSDRPSGIPERFSGSNSGNTATLTISRVEAGDEADYYCQVWDGASDHVVFGGGTKLTVLG
notes: IgG4 PE
For the molecule B2, in test [1], the EC50 came to 0.05 nmol/L and the Emax turned out to be 2190%. Moreover, the koff with human beta-Klotho (KLB) was 0.000151 s⁻¹.

B3: Ab0230 (antibody, IgG4, V domains shown)
VH: not shown
VL: SYVLTQPPSVSVAPGQTARITCGGNNIGSESVHWYQQKPGQAPVLVVYDSSDRPSGIPERFSGSNSGNTATLTISRVEAGDEADYYCQVWDGNSDHVVFGGGTKLTVLG
notes: IgG4 PE
As for B3, in test [1], the concentration giving a half-maximal response (EC50) came to 0.06 nmol/L and the Emax stood at 1610%. Further, in the test with human beta-Klotho (KLB), the koff stood at 0.000111 s⁻¹.

B4: Ab0228 (antibody, IgG4, V domains shown)
VH: not shown
VL: SYVLTQPPSVSVAPGQTARITCGGNNIGSESVHWYQQKPGQAPVLVVYDASDRPSGIPERFSGSNSGNTATLTISRVEAGDEADYYCQVWDGNSDHVVFGGGTKLTVLG
notes: IgG4 PE
Regarding B4, in test [1], the EC50 was determined as 0.04 nmol/L and the Emax was determined as 1380%. The molecule further yielded a koff with human beta-Klotho (KLB) of 0.000258 s⁻¹.

B5: Ab0307 (antibody, IgG4, V domains shown)
VH: QVTLKESGPVLVKPTETLTLTCTVSGFSLNNARVGVSWIRQPPGKALEWLAHIFSNDEKSYSTSLKSRLTISKDTSKSQVVLTMTNMDPVDTATYYCARSVVTGGYYYEGMDVWGQGTTVTVSS
VL: SYVLTQPPSVSVAPGQTARITCGGNNIGSESVHWYQQKPGQAPVLVVYYDSDRPSGIPERFSGSNSGNTATLTISRVEAGDEADYYCQVWDGESDHVVFGGGTKLTVLG
notes: IgG4 PE
Turning to B5, in test [1], the EC50 came to 0.06 nmol/L and the Emax worked out at 1150%. The molecule also registered a koff with human beta-Klotho (KLB) of 0.00118 s⁻¹.

B6: Ab0309 (antibody, IgG4, V domains shown)
VH: QVTLKESGPVLVKPTETLTLTCTVSGFSLNNARVGVSWIRQPPGKALEWLAHIFSNDEKSYSTSLKSRLTISKDTSKSQVVLTMTNMDPVDTATYYCARSVVTGGYYYEGMDVWGQGTTVTVSS
VL: SYVLTQPPSVSVAPGQTARITCGGNNIGSESVHWYQQKPGQAPVLVVYDESDRPSGIPERFSGSNSGNTATLTISRVEAGDEADYYCQVWDGESDHVVFGGGTKLTVLG
notes: IgG4 PE
As to B6, in test [1], the EC50 came to 0.04 nmol/L and the Emax was 1210%. For the same molecule, the koff in the test with human beta-Klotho (KLB) was 0.00103 s⁻¹.

B7: Ab0226 (antibody, IgG4, V domains shown)
VH: not shown
VL: SYVLTQPPSVSVAPGQTARITCGGNNIGSESVHWYQQKPGQAPVLVVYTDSDRPSGIPERFSGSNSGNTATLTISRVEAGDEADYYCQVWDGNSDHVVFGGGTKLTVLG
notes: IgG4 PE
Turning to B7, in test [1], the EC50 worked out at 0.11 nmol/L and the Emax is 1970%. The molecule also registered a koff with human beta-Klotho (KLB) of 0.00101 s⁻¹.

B8: Ab0295 (antibody, IgG4, V domains shown)
VH: QVTLKESGPVLVKPTETLTLTCTVSGFSLNNARVGVSWIRQPPGKALEWLAHIFSNDEKSYSTSLKSRLTISKDTSKSQVVLTMTNMDPVDTATYYCARSVVTGGYYYEGMDVWGQGTTVTVSS
VL: SYVLTQPPSVSVAPGQTARITCGGSNIGSESVHWYQQKPGQAPVLVVYYDSDRPSGIPERFSGSNSGNTATLTISRVEAGDEADYYCQVWDGNSDHVVFGGGTKLTVLG
notes: IgG4 PE
As to B8, in test [1], the EC50 amounted to 0.07 nmol/L and the Emax was 1310%. Further, the koff in the test with human beta-Klotho (KLB) amounted to 0.00157 s⁻¹.

B9: Ab0297 (antibody, IgG4, V domains shown)
VH: QVTLKESGPVLVKPTETLTLTCTVSGFSLNNARVGVSWIRQPPGKALEWLAHIFSNDEKSYSTSLKSRLTISKDTSKSQVVLTMTNMDPVDTATYYCARSVVTGGYYYEGMDVWGQGTTVTVSS
VL: SYVLTQPPSVSVAPGQTARITCGGNNIGSESVHWYQQKPGQAPVLVVYYESDRPSGIPERFSGSNSGNTATLTISRVEAGDEADYYCQVWDGNSDHVVFGGGTKLTVLG
notes: IgG4 PE
With B9, in test [1], the EC50 is 0.07 nmol/L and the Emax was 1210%. The molecule further yielded a koff with human beta-Klotho (KLB) of 0.00156 s⁻¹.

B10: Ab0306 (antibody, IgG4, V domains shown)
VH: QVTLKESGPVLVKPTETLTLTCTVSGFSLNNARVGVSWIRQPPGKALEWLAHIFSNDEKSYSTSLKSRLTISKDTSKSQVVLTMTNMDPVDTATYYCARSVVTGGYYYEGMDVWGQGTTVTVSS
VL: SYVLTQPPSVSVAPGQTARITCGGSNIGSESVHWYQQKPGQAPVLVVYDDSDRPSGIPERFSGSNSGNTATLTISRVEAGDEADYYCQVWDGESDHVVFGGGTKLTVLG
notes: IgG4 PE
For B10, in test [1], the EC50 stood at 0.05 nmol/L and the maximal response (Emax) worked out at 1330%. Besides, the koff in the test with human beta-Klotho (KLB) was 0.000288 s⁻¹.

B11: Ab0308 (antibody, IgG4, V domains shown)
VH: QVTLKESGPVLVKPTETLTLTCTVSGFSLNNARVGVSWIRQPPGKALEWLAHIFSNDEKSYSTSLKSRLTISKDTSKSQVVLTMTNMDPVDTATYYCARSVVTGGYYYEGMDVWGQGTTVTVSS
VL: SYVLTQPPSVSVAPGQTARITCGGSNIGSESVHWYQQKPGQAPVLVVYYDSDRPSGIPERFSGSNSGNTATLTISRVEAGDEADYYCQVWDGESDHVVFGGGTKLTVLG
notes: IgG4 PE
As to B11, in test [1], the EC50 was 0.06 nmol/L and the Emax stood at 1070%. Besides, the koff with human beta-Klotho (KLB) is 0.0013 s⁻¹.

B12: Ab0227 (antibody, IgG4, V domains shown)
VH: not shown
VL: SYVLTQPPSVSVAPGQTARITCGGNNIGSESVHWYQQKPGQAPVLVVYDYSDRPSGIPERFSGSNSGNTATLTISRVEAGDEADYYCQVWDGNSDHVVFGGGTKLTVLG
notes: IgG4 PE
For B12, in test [1], the EC50 was found to be 0.06 nmol/L and the Emax amounted to 2340%. In the test with human beta-Klotho (KLB), this molecule displayed a koff of 0.000214 s⁻¹.

B13: Ab0229 (antibody, IgG4, V domains shown)
VH: not shown
VL: SYVLTQPPSVSVAPGQTARITCGGNNIGSESVHWYQQKPGQAPVLVVYDHSDRPSGIPERFSGSNSGNTATLTISRVEAGDEADYYCQVWDGNSDHVVFGGGTKLTVLG
notes: IgG4 PE
As to B13, in test [1], the EC50 was found to be 0.04 nmol/L and the Emax came to 1440%. The dissociation rate constant (koff) with human beta-Klotho (KLB) came out at 0.000394 s⁻¹.

B14: Ab0235 (antibody, IgG4, V domains shown)
VH: not shown
VL: SYVLTQPPSVSVAPGQTARITCGGNNIGSESVHWYQQKPGQAPVLVVYDDSDRPSGIPERFSGSNSGNTATLTISRVEAGDEADYYCQVWDGDSDHVVFGGGTKLTVLG
notes: IgG4 PE
Take B14: in test [1], the concentration for a half-maximal effect (EC50) came to 0.06 nmol/L and the Emax worked out at 2090%. Further, the koff in the test with human beta-Klotho (KLB) was 0.000153 s⁻¹.

B15: Ab0296 (antibody, IgG4, V domains shown)
VH: QVTLKESGPVLVKPTETLTLTCTVSGFSLNNARVGVSWIRQPPGKALEWLAHIFSNDEKSYSTSLKSRLTISKDTSKSQVVLTMTNMDPVDTATYYCARSVVTGGYYYEGMDVWGQGTTVTVSS
VL: SYVLTQPPSVSVAPGQTARITCGGSNIGSESVHWYQQKPGQAPVLVVYDESDRPSGIPERFSGSNSGNTATLTISRVEAGDEADYYCQVWDGNSDHVVFGGGTKLTVLG
notes: IgG4 PE
Turning to B15, in test [1], the EC50 worked out at 0.06 nmol/L and the maximal effect (Emax) was found to be 1290%. The molecule further gave a koff with human beta-Klotho (KLB) of 0.00137 s⁻¹.

B16: Ab0234 (antibody, IgG4, V domains shown)
VH: not shown
VL: SYVLTQPPSVSVAPGQTARITCGGNNIGSESVHWYQQKPGQAPVLVVYDDSDRPSGIPERFSGSNSGNTATLTISRVEAGDEADYYCQVWDGSSDHVVFGGGTKLTVLG
notes: IgG4 PE
For B16, in test [1], the EC50 came out at 0.04 nmol/L and the maximum response (Emax) was 1840%. In the test with human beta-Klotho (KLB), this molecule yielded a koff of 0.00011 s⁻¹.

B17: Ab0310 (antibody, IgG4, V domains shown)
VH: QVTLKESGPVLVKPTETLTLTCTVSGFSLNNARVGVSWIRQPPGKALEWLAHIFSNDEKSYSTSLKSRLTISKDTSKSQVVLTMTNMDPVDTATYYCARSVVTGGYYYEGMDVWGQGTTVTVSS
VL: SYVLTQPPSVSVAPGQTARITCGGSNIGSESVHWYQQKPGQAPVLVVYDESDRPSGIPERFSGSNSGNTATLTISRVEAGDEADYYCQVWDGESDHVVFGGGTKLTVLG
notes: IgG4 PE
Consider B17, for which, in test [1], the EC50 was found to be 0.05 nmol/L and the maximum response (Emax) amounted to 1080%. The molecule further came in with a koff with human beta-Klotho (KLB) of 0.00116 s⁻¹.

B18: Ab0298 (antibody, IgG4, V domains shown)
VH: QVTLKESGPVLVKPTETLTLTCTVSGFSLNNARVGVSWIRQPPGKALEWLAHIFSNDEKSYSTSLKSRLTISKDTSKSQVVLTMTNMDPVDTATYYCARSVVTGGYYYEGMDVWGQGTTVTVSS
VL: SYVLTQPPSVSVAPGQTARITCGGSNIGSESVHWYQQKPGQAPVLVVYYESDRPSGIPERFSGSNSGNTATLTISRVEAGDEADYYCQVWDGNSDHVVFGGGTKLTVLG
notes: IgG4 PE
For B18, in test [1], the EC50 is 0.08 nmol/L and the Emax came to 1180%. Besides, the koff with human beta-Klotho (KLB) amounted to 0.0016 s⁻¹.
